The data set is described as follows: label from the status in PepcDB records.

Turning to “MSSEEDKITRISIEPEKQTLLDHHTEKHFTAGEIVRDIIIGVSDGLTVPFALAAGLSGANASSSIVLTAGIAEVAAGAISMGLGGYLAAKSEEDHYAREMKREQEEIVAVPETEAAEVAEILAQYGIEPHEYSPVVNALRKNPQAWLDFMMRFELGLEKPDPKRALQSAFTIAIAYVLGGFIPLLPYMLIPHAMDAVVASVVITLFALFIFGYAKGHFTGSKPLRSAFETAFIGAIASAAAFCLAKVVQH”, the protein production result is “failed”.

On to “MSSEHIDEVSGISTTGHEWDGIRELNNPLPRWWVITFYITVAWAVAYTIAYPAWPMLSSATKGVLGYSSRNAVKIELAAAEAAKGKYVAAIQQKTVSEIAADDALREFAVAAGGATFKVNCVQCHGSGAQGSKGFPNLNDDDWLWGGTTEQIQQTIAHGIRFASDPDTRQSEMPPFGDIITPEQIAQVGAYVASLSGKVQDASLIEPGAKVFGENCVACHGDNAKGNKELGAPNLTDAIWLYAPGETAIAVQVRAPKHGVMPAWIGRLGETKVKELAVYVHSLGGGE”, for which the protein production result was “failed”.

“MSSEVEQNVPCEACGCSAEMGFVIKEGDDVAEVSIFADNKVLLESEFSNYLALAKEVCADVEHSIVITEDEKELHARLKFSCSAEKLIYELKTRSLRRLEHHHHHH”: the protein production entry is reported as “failed”.

As for “MSSITADNAGQYGDSRKLAARARLHSQYTIAETAWFPWVAAQLSLKPGDRVLDVGCGPAWFWAATTGLLPADLDLTLTDLSPGMVDEAVARCSALPFGSVRGCQADAAALPFEDGAFDAVVAMHMLYHLTDPVAGIADMSRVLKPGGLLAVTTNGAGNMREIYALTTLFGSAPSDPAAEAFGYDAAERSMRSQFGNVTMSQHPASLRITEPEDVFLALTSYPPGDGAGEPQLTRFRQAIADAFSQRSGVLEVSKETALFLSRKTV”, the protein production result is reported as “failed”.

Turning to “MSSKIFCKSWGAEYIAADVVRFRLWATGQQKVMLRLAGKDQEMQANGDGWFTLDVAGVTPGTEYNFVLSDGMVVPDPASRAQKTDVNGPSYVVDPGSYTWRNTGWKGSRWEQAVVYEMHTGTFTPEGTFRAAIAKLPYLAELGVTVIEVMPVAQFGGERGWGYDGVLLYAPHSAYGTPDDFKAFIDAAHGYGLSVVLDIVLNHFGPEGNYLPLLAPAFFHKERMTPWGNGIAYDVDAVRRYIIEAPLYWLTEYHLDGLRFDAIDQIEDSSARHVLVEIAQRIREDITDRPIHLTTEDSRNIISLHPRDQDGNAPLFTAEWNDDFHNAVHVFATGETQAYYNDFADAPEKHLARALAEGFAYQGEISPQTGEPRGVKSTGQPPVAFVDFIQNHDQVGNRAQGDRLITLAGAERTKVLLATLLLSPHIPLLFMGEEYGESRPFLFFTDFHGDLARAVREGRAKEFADHAGENVPDPNAPETFQRSKLNWKQQHSEEGKAWLAFTRELLLLRQKHIVPLLSAARESSGTVLQTAPGFIAVSWRFPGGTLSLALNISATTVLLPDLPGKTLFAWPNESTGSLSQHSLIVRLAQGESAS”, the protein production entry is “not failed”.

In the case of “MSSLFNVNAQFWASLIDSPLKILVHILDIAIVSWLIYKFIKALAGTKVMSLVQGVVLFVLFKFVAEFLGFTTIAFLMNQVITYGVIAGVVIFAPEIRSGLERFGRTPQSFIQRQQLSDDEKLVAAFVKAVAYMSPRKIGALVSIEETQTLREYIATGIPLDADISGELLINIFIPNTPLHDGAVIVEGNKIAVSCAYLPLSESSHISKEFGTRHRAAIGLSEASDAFTFVVSEETGAISVAYKGDFIHDLSLEAFEVLLREHFIKEEPKKKNWMKQFFGGRHHV”, the protein production result is reported as “failed”.

As for “MSSLKGKRIGFGLTGSHCTYEAVFPQIEELVNEGAEVRPVVTFNVKSTNTRFGEGAEWVKKIEDLTGYEAIDSIVKAEPLGPKLPLDCMVIAPLTGNSMSKLANAMTDSPVLMAAKATIRNNRPVVLGISTNDALGLNGTNLMRLMSTKNIFFIPFGQDDPFKKPNSMVAKMDLLPQTIEKALMHQQLQPILVENYQGND”, the protein production result was “failed”.

In the case of “MSSLVQSVDWLAIAPPTLAAVVGLVVLVADLFIGDHKKALLGWVSVAGLAASALLLLPLLDGDRATFCLTGDANTCSYTADHFTLAIQFLVLGGALLAALLSVTALKDADREIPEGEFWFLLLSSAAGAALLPASRDLATLIVALEVASLPAFALVGIKRGDKKSSEAALKFFLSSVTATAVSLMGVSFVYASTGTLYLTEIARKIQHVDGQLHTLAQTGVVLTLVGFAFKTAAVPFHFWVPDTYVGAPLPIAAYLSVVGKAVGFSGLILVTVVAFPSYADVWGPALAALAALTMTVGNVGALRQQATRAYSAVRLLAWSSVGQAGYLLVPIAAAAYSKDAEKAIGSTVAYALMYAAVNLGAFAVAALVGRTKVLNRVSDYRGLYASNPLAALLLGFFLLCLAGLPPGIIGLFAKVTVFSAAVDAGLGWLAVVMAVNVVIALFYYLQWTTLLFRAPEGEPEKHRVPAPLTAAIALTAVLGVALSGAPQLVLRFSDTGLF”, the protein production entry was “failed”.

“MSSNASTEKQHAGGEKTVKAEPQSTSSQKDSTDDYQPNSQVTDDRTLHKVGQTFSDDKGKAVLKDIKQVNKTYKIGDVELTVKEMKLIHLRPDYSMIDYFHELTHDEEFDFVKVFVDIKNTSTKKVNVAPIALMKTNTGETFDWNKDIYLEELNGELEGGAEKSGNLGFIVNASSGHAHDKAADAEKKTKEIKWIEITTSDVFDHNHKKISDAQKIKIKFLEHHHHHH”: the protein production entry was “not failed”.

In the case of “MSSNECFKCGRSGHWARECPTGGGRGRGMRSRGRGFQFVSSSLPDICYRCGESGHLAKDCDLQEDACYNCGRGGHIAKDCKEPKREREQCCYNCGKPGHLARDCDHADEQKCYSCGEFGHIQKDCTKVKCYRCGETGHVAINCSKTSEVNCYRCGESGHLARECTIEATA”, the protein production entry was “failed”.

Take “MSSNNVTTDVVSVDEQAFENAGGQAVDEDGFPVVDETPAFEAEVEQETQAKVDANHPDGIADTSEDRIHGVTLEQEERIRAREAELERISAQAELGTQDGREQRTRAVAAEGSTERRREFQQRAASVEPMADPERDDPRAELSQDELATVNTEADRLATRLDGWSRAAISRRLAEAIVDGRDLTSAVVRVFEELQTAPGGTVPIDALEDIDRKEVSVEGRVTQLWEPSSPSIAQVGLIEDESGRTKLTSWKASDAPWIEEGERVRIHGAAKNWYNGRVSVAVTGWSTLHFPERGRWWDE”: the protein production entry is listed as “failed”.

Consider “MSSNPTSSVREFEYKAEMKQLLNLIVHSLYTHPEIFLRELISNASDALGKARFRMLSSDEGLDKSGDLKITITVDKESGSFVIEDTGIGMSEEELISNLGTVASSGTLGFMEALKEQQKEGQRLDANLIGQFGVGFYSVFMVTDEVTVETKSIESGLQGWRWKSSGQGSYTIEPVEREARGTRISFILKEEFREFAQEYRVEQIIKKYSNFVEYPIYIGSRQINSMTALWQRPKSELKQEEVNEFYKFIANDFKDPLDYLHVSVEGAVSFKALLFIPSEAPMELLYNQGALEKRGPQLYVKKVLIQHECRDLLPEYLRFVSGVVDTEDLPLNVSRELVQASPVMAKIKQILTTKLLGWFDTIAKEEPEKFRAFYKAFGTILKIGLNTDFTNRDKLIDLLRFETTKTVEGEYVTLKEYVGRMAEGQTEIYYHSGSSRAQMLAHPNLEYFRKRDIEVLLLSDPVDVFVIPSIFEYDKKPLKSIEKAEIDMSTVEPEGERLSAEGTVGVISLFKEVLGERVADVVESRRLVSSPVTLVSGKDALDSQFEKMMKMMNKDADMPSTKKILEINTAHPIIRNLAGKHAVGLSTDPVVRAAVTQLFESALLLEGDLESVADYVSRMNELVEAATRS”, for which the protein production entry was “failed”.

Turning to “MSSPFPADTPSSNRPSNSSPPPSSIGAGFGSSSGLDSQIGSRLHFPSSSQPHVSNSQTGPFVNDSTQFSSQRLQTDGSATNDMEGNEPARSFKSRALNHVKKVDDVTGEKVREAFEQFLEDFSVQSTDTGEVEKVYRAQIEFMKIYDLNTIYIDYQHLSMRENGALAMAISEQYYRFLPFLQKGLRRVVRKYAPELLNTSDSLKRSEGDEGQADEDEQQDDDMNGSSLPRDSGSSAAPGNGTSAMATRSITTSTSPEQTERVFQISFFNLPTVHRIRDIRSEKIGSLLSISGTVTRTSEVRPELYKASFTCDMCRAIVDNVEQSFKYTEPTFCPNPSCENRAFWTLNVTRSRFLDWQKVRIQENANEIPTGSMPRTLDVILRGDSVERAKPGDRCKFTGVEIVVPDVTQLGLPGVKPSSTLDTRGISKTTEGLNSGVTGLRSLGVRDLTYKISFLACHVISIGSNIGASSPDANSNNRETELQMAANLQANNVYQDNERDQEVFLNSLSSDEINELKEMVKDEHIYDKLVRSIAPAVFGHEAVKKGILLQMLGGVHKSTVEGIKLRGDINICVVGDPSTSKSQFLKYVVGFAPRSVYTSGKASSAAGLTAAVVRDEEGGDYTIEAGALMLADNGICCIDEFDKMDISDQVAIHEAMEQQTISIAKAGIHATLNARTSILAAANPVGGRYNRKLSLRGNLNMTAPIMSRFDLFFVILDDCNEKIDTELASHIVDLHMKRDEAIEPPFSAEQLRRYIKYARTFKPILTKEARSYLVEKYKELRKDDAQGFSRSSYRITVRQLESMIRLSEAIARANCVDEITPSFIAEAYDLLRQSIIRVDVDDVEMDEEFDNIESQSHAASGNNDDNDDGTGSGVITSEPPADIEEGQSEATARPGTSEKKKTTVTYDKYVSMMNMIVRKIAEVDREGAEELTAVDIVDWYLLQKENDLGSLAEYWEERRLAFKVIKRLVKDRILMEIHGTRHNLRDLENEENENNKTVYVIHPNCEVLDQLEPQDSS”, the protein production entry is listed as “failed”.

With “MSSPSLSPHYQKMLDDLDGQVLQLDRQVFRRLARLGYQPQVIFDVGASNSGWSYYIKQVVTEADFYLFEPLVDHVPDYQGLMEETLRVYPSFHLYKYALGDRDGTITVNVFDDPASSTTLPMTEGGPSINAVQVPLLTLDSALVKLGLPQPQVIKIDTQGNELSILRGAAQTLAKVDVLFLECWLYRGYGPKTPLLTEIAHWLLPFNFRLWDVSEPYRGPQGELTTLDCIFINTAAGLVPNWYY”, the protein production result is given as “failed”.

Consider “MSSQELVTLNVGGKIFTTRFSTIKQFPASRLARMLDGRDQEFKMVGGQIFVDRDGDLFSFILDFLRTHQLLLPTEFSDYLRLQREALFYELRSLVDLLNPYLLQPRPALVEVHFLSRNTQAFFRVFGSCSKTIEMLTGRITVFTEQPSAPTWNGNFFPPQMTLLPLPPQRPSYHDLVFQCGSDSTTDNQTGVRYVSIKPDNRKLANGTNVLGLLIDTLLKEGFHLVSTRTVSSEDKTECYSFERIKSPEVLITNETPKPETIIIPEQSQIKK”, for which the protein production entry is given as “failed”.

For the sequence “MSSQLNHGTLPKISIVTPSYNQAQYLEATMRSILDQGYPDLEYIVMDGGSTDGSTEIIQKYSDRLTYWESAPDKGQADAIFRGFERATGEIFCYVNSDDLLLPGSLEMVGRWFREHPDEEWVVGGTILIDGLGIPIIRSRRGLPEADLGVKVTFKRLLLHNCGGFHQPASFWRRSAFEQAGGFDRTLRFCFDYDLFFRLAKRRPSGRIRSFLAAFRYHPASKTSTLESVFREENETLWRRYGRYLYSENQIRNFAHKQTTRDMWNNRIIKLGFYLKILNVSNAIGSLEHHHHHH”, the protein production result was “not failed”.

Regarding “MSSRCLGCGTKFDSEAGRPRCPACRWEPEEIGGIAAYAPQFANQGGGFEASYFKVLSELEATNFWFRSRNDLILWALRKYHPKFRSFLEIGCGTGFVLSGVTGKYPEAEIFGSEIFIEGLRFASQRLPNARLMQMDARAIPFAEEFEAIGAFDVLEHIEEDETVLQQMHAALKPKGTLLVTVPQHPWLWSPLDDYAHHCRRYTANELSRKVTAAGFTILRNTSFVSFLLPAMLASRLLSRNKSVDEIDVRTEMQLPSLLNNAFRWILRAESALIGTGFDFPLGGSRLLVARKM”, the protein production result is given as “failed”.

Regarding “MSSSGTSITCEVGLQLIVPDRAPVPLVARLDYSVDDPYAIRAAFHVGDDEPVEWIFARELLTVGIIRETGEGDVRIWPSQDGKERMVNIALSSPFGQARFHAQVAPLSEFLHRTYELVPAGQESDYIDIDAEIAEHLS”, the protein production entry is given as “not failed”.

These data come from a protein production outcome set (Wang et al. 2014).
